Values quoted from earlier work as cited in publication PMC9405863.

Target: Calmodulin (Homo sapiens) (UniProt P0DP23)
Assay: ITC

Row | Kd | Substance
1 | 800 nM | STIM1 K-rich domain (from UniProt Q13586)
2 | 900 nM | STIM2 K-rich domain (from UniProt Q9P246)
